Measured values: patent US20160089393A1, “COMPOSITION AND METHODS FOR COMBATING ANTIBACTERIAL RESISTANT BACTERIA” (BLUEBERRY THERAPEUTICS LIMITED, priority 2013, published 2016)

Legend:
EMRSA-15 [1] = experiment: MIC by broth microdilution (antibacterial susceptibility test of EMRSA-15); assay type: cell-based, methicillin-resistant Staphylococcus aureus (MRSA); details: Staphylococcus aureus, read-out: MIC of EMRSA-15 to oxacillin
Procedure: Antibacterial susceptibility test of EMRSA-15 was carried out according to NCCLS guidelines for broth micro broth dilution with modifications. EMRSA-15 was streaked from a −70° C. glycerol stock to Columbia base agar (Oxoid) supplemented with 5% horse blood (Oxoid) and 6 μg/ml oxacillin (Sigma), and incubated for 18-20 h at 33° C. Two to four bacterial colonies were inoculated into 3 ml Mueller Hinton broth (MHB, Oxoid) supplemented with 6 μg/ml oxacillin (Sigma) and incubated for 18-20 h at 33° C. with shaking at 180 rpm. Cultures were adjusted to OD625 0.08-0.1 (equivalent to 0.5 Mcfarland or 1-2×10^8 cfu/ml) with MHB and further diluted 1/50 to achieve a final concentration of 5×10^5 cfu per well. Susceptibility to either oxacillin, PHMB or peptides was tested by adding oxacillin (0-1024 μg/ml in MHB), PHMB (0-512 μg/ml in 1×PBS) or peptide (0-512 μg/ml in 1×PBS) to 75 μl of culture in a final volume of 150 μl per well. Plates were incubated at 33° C. for 24 h and growth was scored visually.

EMRSA-15 [2] = experiment: Checkerboard synergy of PHMB and MecA peptides with oxacillin (FIC index); assay type: cell-based, methicillin-resistant Staphylococcus aureus (MRSA); details: Staphylococcus aureus
Procedure: (§1) Synergy of PHMB and peptides (MecA3136, MecA3140) were tested by a standard checkerboard method of two-fold dilutions. PHMB and peptide were mixed at appropriate concentrations to a final volume of 30 μl in each well of a 96 well plate, and the mixtures were incubated at 20-22° C. for 30 mins before the addition of culture and oxacillin to a final volume of 150 μl. Plates were incubated and scored as above. FIC indices were calculated for wells without growth and containing the lowest combination of PHMB and peptide as follows: (A/MICA)+(B/MICB)=FICA+FICB=FIC index, where A is concentration of PHMB in combination, MICA is MIC of PHMB alone, B is concentration of peptide in combination, MICB is MIC of peptide alone. A control plate without oxacillin, and control wells of culture with increasing oxcaillin but without PHMB and peptide were included.

EMRSA-15 [3] = experiment: Oxacillin sensitization: growth of EMRSA-15 with peptide, oxacillin and fixed PHMB; assay type: cell-based, methicillin-resistant Staphylococcus aureus (MRSA); parameters: key: 1 is growth; 0 is no growth; details: MecA3136 0 uM, PHMB 0.25 μg/ml
Procedure: as §1, with “included. […]” for “included.”

EMRSA-15 [4] = experiment: as above; assay type: cell-based, methicillin-resistant Staphylococcus aureus (MRSA); parameters: key: 1 indicates growth; 0 indicates no growth; details: PHMB 1 ug/ml
Procedure: as §1, with “included. […]” for “included.”

EMRSA-15 [5] = experiment: as above; assay type: cell-based, methicillin-resistant Staphylococcus aureus (MRSA)
Procedure: as §1, with “included. […]” for “included.”

[6] = target: T1, MecA (Penicillin binding protein 2A, PBP2A) (Staphylococcus aureus, UniProt P07944); experiment: In vitro binding to MecA and block of oxacillin binding; parameters: species or system methicillin-resistant Staphylococcus aureus (MRSA)
T1 construct: The primers were designed so that the first 23 amino acids at the N terminus were deleted; GST (N, cleaved yes); primer-encoded linker LEVLFQGP-M (my own translation of the forward primer); made in house; host or cells: Escherichia coli BL21(DE3)
T1 sequence (P07944 24-670): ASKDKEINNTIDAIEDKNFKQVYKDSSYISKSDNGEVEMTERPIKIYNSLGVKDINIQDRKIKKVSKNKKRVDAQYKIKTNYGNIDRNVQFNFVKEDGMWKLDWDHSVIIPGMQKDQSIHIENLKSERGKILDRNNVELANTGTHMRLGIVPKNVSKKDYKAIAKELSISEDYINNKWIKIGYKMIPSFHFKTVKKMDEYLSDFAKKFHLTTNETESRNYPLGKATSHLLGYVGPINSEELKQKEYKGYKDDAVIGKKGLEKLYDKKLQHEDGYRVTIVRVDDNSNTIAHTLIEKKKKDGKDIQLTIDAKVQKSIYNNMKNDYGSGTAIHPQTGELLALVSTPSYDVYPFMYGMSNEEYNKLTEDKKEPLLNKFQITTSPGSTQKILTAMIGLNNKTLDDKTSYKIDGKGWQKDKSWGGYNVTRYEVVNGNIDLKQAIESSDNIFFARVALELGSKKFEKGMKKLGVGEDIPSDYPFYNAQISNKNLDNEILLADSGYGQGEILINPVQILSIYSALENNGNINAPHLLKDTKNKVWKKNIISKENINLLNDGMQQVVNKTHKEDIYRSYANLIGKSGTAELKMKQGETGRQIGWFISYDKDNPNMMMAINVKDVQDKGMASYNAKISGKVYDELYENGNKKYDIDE
Procedure: For inhibitor screening recombinantly expressed and purified PBP2a is immobilised using an affinity tag to the surface of the wells of a microtiter plate. The wells are then incubated with serially diluted solutions of the peptide aptamer or indeed any possible inhibitor of PBP2a, plus a PBP2a substrate, such as BIO-AMP (Bobba et al. 2011) at a fixed concentration in PBS. After approximately 15 min, the binding reactions are stopped, and the plates were developed as described (Bobba et al. 2011). The background levels of fluorescence from control reactions are subtracted and then the inhibitor binding data are calculated and plotted to determine the Ki^app of binding.

Cc1onc(-c2ccccc2)c1C(=O)N[C@@H]1C(=O)N2[C@@H]1SC(C)(C)[C@@H]2C(=O)O [Oxacillin, oxacillin, reference compound]
MIC (EMRSA-15 [1]; MHB + 0.25 μg/ml PHMB): 256 mg/L
MIC (EMRSA-15 [1]; MHB + 176 μg/ml MecA3136): 128 mg/L
MIC (EMRSA-15 [1]; MHB + 176 μg/ml MecA3140): 128 mg/L
MIC (EMRSA-15 [1]; MHB): 128 mg/L
MIC (EMRSA-15 [2]; oxacillin alone, checkerboard set of experiments): 256 mg/L
MIC (EMRSA-15 [2]; with PHMB and MecA3136 at certain concentrations): 516 mg/L
Growth of EMRSA-15 (EMRSA-15 [3]; oxacillin 16 ug/ml): 1
Growth of EMRSA-15 (EMRSA-15 [3]; oxacillin 32 ug/ml): 1
Growth of EMRSA-15 (EMRSA-15 [3]; oxacillin 64 ug/ml): 1
Growth of EMRSA-15 (EMRSA-15 [3]; oxacillin 128 ug/ml): 1
Growth of EMRSA-15 (EMRSA-15 [3]; oxacillin 256 ug/ml): 0
Growth of EMRSA-15 (EMRSA-15 [4]; E1 0 ug/ml, oxacillin 8 ug/ml): 1
Growth of EMRSA-15 (EMRSA-15 [4]; E1 0 ug/ml, oxacillin 16 ug/ml): 1
Growth of EMRSA-15 (EMRSA-15 [4]; E1 0 ug/ml, oxacillin 32 ug/ml): 1
Growth of EMRSA-15 (EMRSA-15 [4]; E1 0 ug/ml, oxacillin 64 ug/ml): 1
Growth of EMRSA-15 (EMRSA-15 [4]; E1 0 ug/ml, oxacillin 128 ug/ml): 0
Growth of EMRSA-15 (EMRSA-15 [4]; HIW 0 ug/ml, oxacillin 16 ug/ml): 1
Growth of EMRSA-15 (EMRSA-15 [4]; HIW 0 ug/ml, oxacillin 32 ug/ml): 1
Growth of EMRSA-15 (EMRSA-15 [4]; HIW 0 ug/ml, oxacillin 64 ug/ml): 0

B1: E1: MecA (PBP2A) binding peptide aptamer, Sequence ID No. 4; different scaffold to MecA3136 and MecA3140 (protein)
chain: ASAATGVRAVPGNENSLEIEELARFAVDEHNKKENALLEFVRVVKAKEQHWKAKLGHDTMYYLTLEAKDGGKKKLYEAKVWVKLIPTKDFHLNFKELQEFKPVGDAAAAHHHHHH
modifications: Peptide sequence E1
notes: different scaffold to MecA3136 and MecA3140
effect during the assay (EMRSA-15 [5]; oxacillin and 1 ug/ml PHMB): Sequence E1 is a different scaffold to MecA3136 and MecA3140, but in Table 11 shows a modest effect during the assay.
enhancement of oxacillin activity (EMRSA-15 [5]; with PHMB): Clear enhancement of oxacillin activity
binding to MecA and block of oxacillin binding [6]: bind to MecA and block oxycillin binding to MecA
Growth of EMRSA-15 (EMRSA-15 [4]; E1 5 ug/ml, oxacillin 0 ug/ml): 1
Growth of EMRSA-15 (EMRSA-15 [4]; E1 5 ug/ml, oxacillin 8 ug/ml): 1
Growth of EMRSA-15 (EMRSA-15 [4]; E1 5 ug/ml, oxacillin 16 ug/ml): 1
Growth of EMRSA-15 (EMRSA-15 [4]; E1 5 ug/ml, oxacillin 32 ug/ml): 1
Growth of EMRSA-15 (EMRSA-15 [4]; E1 5 ug/ml, oxacillin 64 ug/ml): 0
Growth of EMRSA-15 (EMRSA-15 [4]; E1 5 ug/ml, oxacillin 128 ug/ml): 0
Growth of EMRSA-15 (EMRSA-15 [4]; E1 10 ug/ml, oxacillin 0 ug/ml): 1
Growth of EMRSA-15 (EMRSA-15 [4]; E1 10 ug/ml, oxacillin 8 ug/ml): 1
Growth of EMRSA-15 (EMRSA-15 [4]; E1 10 ug/ml, oxacillin 16 ug/ml): 1
Growth of EMRSA-15 (EMRSA-15 [4]; E1 10 ug/ml, oxacillin 32 ug/ml): 1
Growth of EMRSA-15 (EMRSA-15 [4]; E1 10 ug/ml, oxacillin 64 ug/ml): 0
Growth of EMRSA-15 (EMRSA-15 [4]; E1 10 ug/ml, oxacillin 128 ug/ml): 0
Growth of EMRSA-15 (EMRSA-15 [4]; E1 20 ug/ml, oxacillin 0 ug/ml): 1
Growth of EMRSA-15 (EMRSA-15 [4]; E1 20 ug/ml, oxacillin 8 ug/ml): 1
Growth of EMRSA-15 (EMRSA-15 [4]; E1 20 ug/ml, oxacillin 16 ug/ml): 1
Growth of EMRSA-15 (EMRSA-15 [4]; E1 20 ug/ml, oxacillin 32 ug/ml): 0
Growth of EMRSA-15 (EMRSA-15 [4]; E1 20 ug/ml, oxacillin 64 ug/ml): 0
Growth of EMRSA-15 (EMRSA-15 [4]; E1 20 ug/ml, oxacillin 128 ug/ml): 0
